According to patent US11891634B2, “PDE5A destabilizing domains” (The Board of Trustees of the Leland Stanford Junior …, priority 2017, dated 2024):

Key:
[1] = test system: HCT 116 cells transduced with the PDE5A DD derived GFP constructs; experiment: Response to Vardenafil, GFP expression by FACS in HCT116; format: cell-based, human; settings: for MFI / Stabilization ratio with Vardenafil: 48 hours, HCT116
Procedure: Mutations were created in PDE5A (535-860) catalytic domain using site directed mutagenesis and the mutants were cloned as AcGFP fusion into pELNS vector carrying mCherry marker and packaged in lentiviral vectors. HCT116 cells were transduced with the constructs and stable integrants were selected by cell sorting using mCherry marker. Cells were treated with vehicle (dimethyl sulfoxide, DMSO) or 10 μM Vardenafil (VDF) for 48 hours. Following the treatment, cells were analyzed for GFP expression using FACS. Basal expression was calculated as the ratio of GFP signal in the absence of ligand for a given cell line to auto fluorescence of parental HCT-116 cells. Stabilization ratio was calculated as the ratio of the GFP signal observed in the presence of stabilizing ligand to the signal from the same cell line in the absence of ligand.
HCT 116 cells transduced with the PDE5A DD derived GFP constructs were also tested with increasing doses of Vardenafil. The HCT116 cells were incubated for 48 hours with Vardenafil starting at a dose of 0.002 μM to 30 μM. The GFP intensity of the Vardenafil treated samples was compared to the parental untransduced HCT116 and DMSO treated cells for each construct. The mean fluorescence intensity was calculated for each sample and used to calculate the stabilization ratios as well as the basal expression for each construct. The GFP expression was measured using flow cytometry and the mean fluorescence intensity (MFI) was calculated for each sample. The stabilization ratios are shown in Table 13 and Table 14 and the basal expression is show in Table 15.

[2] = test system: HCT116 cells transduced with the constructs; experiment: Response to Sildenafil, GFP expression by flow cytometry in HCT116; format: cell-based, human; settings: for MFI / Stabilization ratio with Sildenafil: 48 hours, HCT116
Procedure: Similar experiments were performed in HCT116 cells using sildenafil. The above-mentioned DDs were cloned as AcGFP fusion into pELNS vector carrying mCherry marker and packaged in lentiviral vectors. HCT116 cells were transduced with the constructs and stable integrants were selected by cell sorting using mCherry marker. Cells were treated with sildenafil at the following μM concentrations: 0.01, 0.02, 0.05, 0.14, 0.41, 1.23, 3.7, 11.11, 33.33, and 100 for a duration of 48 hours. The fluorescence was analyzed by flow cytometry and the mean fluorescence intensity was calculated for all samples. […] The stabilization ratios are shown in Table 24 and Table 25 and the basal expression is show in Table 26.

B1: PDE5AC (#42): AcGFP fused to C-terminal DD 535-860 of PDE5A (E535D, K555R, F564S, Q589R, K630R, C677R, N742S, I799T, M816A), SEQ ID NO. 28 (protein)
chain: DETRELQSLAAAVVPSAQTLRITDFSFSDSELSDLETALCTIRMFTDLNLVQNFRMKHEVLCRWILSVKKNYRKNVAYHNWRHAFNTAQCMFAALRAGKIQNKLTDLEILALLIAALSHDLDHRGVNNSYIQRSEHPLAQLYRHSIMEHHHFDQCLMILNSPGNQILSGLSIEEYKTTLKIIKQAILATDLALYIKRRGEFFELIRKSQFNLEDPHQKELFLAMLMTACDLSAITKPWPIQQRIAELVATEFFDQGDRERKELNTEPTDLMNREKKNKIPSAQVGFIDAICLQLYEALTHVSEDCFPLLDGCRKNRQKWQALAEQQ
modifications: /note=“Description of Artificial Sequence Synthetic Destabilizing Domain (DD)”
MFI ([1]; DMSO (no Vardenafil)): 25111
Basal (DMSO/Parental) ([1]; Table 10, GFP signal without ligand / auto fluorescence of parental HCT-116): 20.0
Basal ([1]; Table 15, MFI with DMSO / parental HCT116, Vardenafil experiment): 12.85
Stabilization ratio with Vardenafil ([1]; Vardenafil 0.002 μM vs DMSO): 1.0
MFI ([1]; Vardenafil 0.002 μM): 25236
MFI ([1]; Vardenafil 0.005 μM): 28309
Stabilization ratio with Vardenafil ([1]; Vardenafil 0.014 μM vs DMSO): 1.4
MFI ([1]; Vardenafil 0.014 μM): 33958
Stabilization ratio with Vardenafil ([1]; Vardenafil 0.041 μM vs DMSO): 1.9
MFI ([1]; Vardenafil 0.041 μM): 46882
Stabilization ratio with Vardenafil ([1]; Vardenafil 0.123 μM vs DMSO): 3.2
MFI ([1]; Vardenafil 0.123 μM): 81233
Stabilization ratio with Vardenafil ([1]; Vardenafil 0.370 μM vs DMSO): 4.6
MFI ([1]; Vardenafil 0.370 μM): 114847
Stabilization ratio with Vardenafil ([1]; Vardenafil 1.111 μM vs DMSO): 5.4
MFI ([1]; Vardenafil 1.111 μM): 136303
Stabilization ratio with Vardenafil ([1]; Vardenafil 3.333 μM vs DMSO): 5.9
MFI ([1]; Vardenafil 3.333 μM): 147512
Stabilization ratio with Vardenafil ([1]; Vardenafil 10 μM vs DMSO): 6.4
MFI ([1]; Vardenafil 10 μM): 161587
Stabilization ratio with Vardenafil ([1]; Vardenafil 30 μM vs DMSO): 8.0
MFI ([1]; Vardenafil 30 μM): 199877
MFI ([2]; DMSO (no Sildenafil)): 23943
Stabilization ratio with Sildenafil ([2]; Sildenafil 0.01 μM vs DMSO): 1.0
MFI ([2]; Sildenafil 0.01 μM): 23295
Stabilization ratio with Sildenafil ([2]; Sildenafil 0.02 μM vs DMSO): 1.0
MFI ([2]; Sildenafil 0.02 μM): 23606
Stabilization ratio with Sildenafil ([2]; Sildenafil 0.05 μM vs DMSO): 1.0
MFI ([2]; Sildenafil 0.05 μM): 24817
Stabilization ratio with Sildenafil ([2]; Sildenafil 0.14 μM vs DMSO): 1.2
MFI ([2]; Sildenafil 0.14 μM): 29495
Stabilization ratio with Sildenafil ([2]; Sildenafil 0.41 μM vs DMSO): 1.7
MFI ([2]; Sildenafil 0.41 μM): 40817
Stabilization ratio with Sildenafil ([2]; Sildenafil 1.23 μM vs DMSO): 2.6
MFI ([2]; Sildenafil 1.23 μM): 63410
Stabilization ratio with Sildenafil ([2]; Sildenafil 3.70 μM vs DMSO): 3.8
MFI ([2]; Sildenafil 3.70 μM): 91798
Stabilization ratio with Sildenafil ([2]; Sildenafil 11.11 μM vs DMSO): 5.3
MFI ([2]; Sildenafil 11.11 μM): 127187
Stabilization ratio with Sildenafil ([2]; Sildenafil 33.33 μM vs DMSO): 6.3
MFI ([2]; Sildenafil 33.33 μM): 149906
Stabilization ratio with Sildenafil ([2]; Sildenafil 100.00 μM vs DMSO): 6.9
MFI ([2]; Sildenafil 100.00 μM): 164269
Basal expression ([2]; Table 26, MFI with DMSO / parental HCT116, Sildenafil experiment): 18.6
